Results reported in publication doi:10.1101/288472.

Target: uncleaved full-length membrane-anchored HIV-1_(JR-FL) Env(-) glycoprotein (HIV-1 (JR-FL))
Test: cryo-EM structure

uncleaved full-length membrane-anchored HIV-1_(JR-FL) Env(-) glycoprotein (natural protein)
stoichiometry N: 3
